# Test results reported in paper doi:10.1101/716654 (bioRxiv, 2019).
# Target: the molecule itself
# Test: native gel or EMSA
protein,measurement,value
hNav1.7^GFP (human voltage-gated sodium channel Nav1.7 fused to C-terminal GFP) (natural protein) not shown,stoichiometry N,2
